B1: Partner and localizer of BRCA2 (Homo sapiens), Q86YC2 (parent)
chain: MDEPPGKPLSCEEKEKLKEKLAFLKREYSKTLARLQRAQRAEKIKHSIKKTVEEQDCLSQQDLSPQLKHSEPKNKICVYDKLHIKTHLDEETGEKTSITLDVGPESFNPGDGPGGLPIQRTDDTQEHFPHRVSDPSGEQKQKLPSRRKKQQKRTFISQERDCVFGTDSLRLSGKRLKEQEEISSKNPARSPVTEIRTHLLSLKSELPDSPEPVTEINEDSVLIPPTAQPEKGVDTFLRRPNFTRATTVPLQTLSDSGSSQHLEHIPPKGSSELTTHDLKNIRFTSPVSLEAQGKKMTVSTDNLLVNKAISKSGQLPTSSNLEANISCSLNELTYNNLPANENQNLKEQNQTEKSLKSPSDTLDGRNENLQESEILSQPKSLSLEATSPLSAEKHSCTVPEGLLFPAEYYVRTTRSMSNCQRKVAVEAVIQSHLDVKKKGFKNKNKDASKNLNLSNEETDQSEIRMSGTCTGQPSSRTSQKLLSLTKVSSPAGPTEDNDLSRKAVAQAPGRRYTGKRKSACTPASDHCEPLLPTSSLSIVNRSKEEVTSHKYQHEKLFIQVKGKKSRHQKEDSLSWSNSAYLSLDDDAFTAPFHRDGMLSLKQLLSFLSITDFQLPDEDFGPLKLEKVKSCSEKPVEPFESKMFGERHLKEGSCIFPEELSPKRMDTEMEDLEEDLIVLPGKSHPKRPNSQSQHTKTGLSSSILLYTPLNTVAPDDNDRPTTDMCSPAFPILGTTPAFGPQGSYEKASTEVAGRTCCTPQLAHLKDSVCLASDTKQFDSSGSPAKPHTTLQVSGRQGQPTCDCDSVPPGTPPPIESFTFKENQLCRNTCQELHKHSVEQTETAELPASDSINPGNLQLVSELKNPSGSCSVDVSAMFWERAGCKEPCIITACEDVVSLWKALDAWQWEKLYTWHFAEVPVLQIVPVPDVYNLVCVALGNLEIREIRALFCSSDDESEKQVLLKSGNIKAVLGLTKRRLVSSSGTLSDQQVEVMTFAEDGGGKENQFLMPPEETILTFAEVQGMQEALLGTTIMNNIVIWNLKTGQLLKKMHIDDSYQASVCHKAYSEMGLLFIVLSHPCAKESESLRSPVFQLIVINPKTTLSVGVMLYCLPPGQAGRFLEGDVKDHCAAAILTSGTIAIWDLLLGQCTALLPPVSDQHWSFVKWSGTDSHLLAGQKDGNIFVYHYS

Variants of: B1
Settings: with brca1_human BRCA1, P38398
Chain of brca1_human BRCA1, P38398 (P38398 whole entry, looked up): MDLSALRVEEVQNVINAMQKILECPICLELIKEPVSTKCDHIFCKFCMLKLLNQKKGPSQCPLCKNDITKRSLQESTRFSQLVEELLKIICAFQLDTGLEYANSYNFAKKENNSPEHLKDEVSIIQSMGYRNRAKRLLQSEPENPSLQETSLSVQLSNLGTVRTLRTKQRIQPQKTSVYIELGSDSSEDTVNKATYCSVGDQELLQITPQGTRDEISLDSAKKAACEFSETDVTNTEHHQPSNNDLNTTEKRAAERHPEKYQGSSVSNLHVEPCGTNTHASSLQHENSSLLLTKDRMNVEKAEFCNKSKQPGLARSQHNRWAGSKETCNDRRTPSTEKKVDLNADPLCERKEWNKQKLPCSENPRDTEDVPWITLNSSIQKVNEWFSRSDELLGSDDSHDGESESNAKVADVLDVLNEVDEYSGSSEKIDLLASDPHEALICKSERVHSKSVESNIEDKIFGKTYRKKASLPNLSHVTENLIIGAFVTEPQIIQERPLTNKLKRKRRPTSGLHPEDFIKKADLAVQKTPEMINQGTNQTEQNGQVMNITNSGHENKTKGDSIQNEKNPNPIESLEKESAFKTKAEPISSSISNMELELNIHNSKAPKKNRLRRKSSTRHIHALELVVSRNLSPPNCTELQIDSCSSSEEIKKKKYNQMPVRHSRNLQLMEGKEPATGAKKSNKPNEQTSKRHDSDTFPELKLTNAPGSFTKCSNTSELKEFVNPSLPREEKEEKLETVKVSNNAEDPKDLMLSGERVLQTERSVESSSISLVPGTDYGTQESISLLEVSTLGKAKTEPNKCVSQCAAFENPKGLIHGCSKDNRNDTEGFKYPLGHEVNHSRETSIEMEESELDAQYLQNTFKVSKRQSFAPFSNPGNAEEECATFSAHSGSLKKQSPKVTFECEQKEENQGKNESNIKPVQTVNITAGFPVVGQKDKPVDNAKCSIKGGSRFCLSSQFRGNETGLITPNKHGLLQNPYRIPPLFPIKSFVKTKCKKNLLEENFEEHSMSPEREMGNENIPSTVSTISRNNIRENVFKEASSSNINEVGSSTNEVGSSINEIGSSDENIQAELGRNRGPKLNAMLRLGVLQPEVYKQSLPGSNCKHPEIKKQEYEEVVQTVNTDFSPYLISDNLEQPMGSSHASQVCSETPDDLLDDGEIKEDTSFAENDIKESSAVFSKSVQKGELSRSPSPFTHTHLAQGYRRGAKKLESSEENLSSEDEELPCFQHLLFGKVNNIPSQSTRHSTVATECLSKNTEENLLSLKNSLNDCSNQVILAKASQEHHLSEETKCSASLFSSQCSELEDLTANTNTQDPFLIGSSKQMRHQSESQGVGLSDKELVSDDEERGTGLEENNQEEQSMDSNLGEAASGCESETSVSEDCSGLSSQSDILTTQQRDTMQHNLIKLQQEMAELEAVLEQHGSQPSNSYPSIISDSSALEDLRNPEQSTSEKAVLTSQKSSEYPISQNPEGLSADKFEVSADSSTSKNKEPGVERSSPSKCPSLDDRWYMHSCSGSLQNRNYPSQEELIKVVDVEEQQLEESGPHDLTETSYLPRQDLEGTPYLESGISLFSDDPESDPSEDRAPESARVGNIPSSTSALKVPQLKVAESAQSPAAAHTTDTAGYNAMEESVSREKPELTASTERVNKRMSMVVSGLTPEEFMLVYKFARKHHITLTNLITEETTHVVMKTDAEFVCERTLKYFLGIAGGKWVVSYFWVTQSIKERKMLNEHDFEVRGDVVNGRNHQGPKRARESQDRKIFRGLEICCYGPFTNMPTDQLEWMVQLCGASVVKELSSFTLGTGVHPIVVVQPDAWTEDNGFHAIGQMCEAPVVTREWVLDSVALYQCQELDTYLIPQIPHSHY

Variant | effect of a mutation on the interaction
Y28A | disrupting interaction
L21A | disrupting interaction

— IntAct's records for PubMed 19369211
